Experimental data: patent publication US20260242735A1 (UNIVERSIT T BASEL, published 2026)

Legend:
human CD33 N99A = human CD33 N99A (human, UniProt P20138 18-364); assay: flow cytometry on HEK293-T, alanine scan
Experimental: (§1) An alanine scan on human CD33 was performed to the determine the residues on CD33 that are involved in binding to the antibodies investigated. […] Briefly, a mutation library of CD33 was created by high-throughput, site-directed mutagenesis. Each residue was individually mutated to alanine, with alanine codons mutated to serine. The mutant library was arrayed in 384-well microplates and transiently transfected into HEK293-T. Following transfection, cells were incubated with the indicated antibodies (IgG or Fab) at concentrations pre-determined using an independent immunofluorescence titration curve on wild type CD33. […] Binding of each antibody to each mutant clone was determined in duplicates. For each point, background fluorescence was subtracted from the raw data, which were then normalized to antibody reactivity with wild type CD33.
(§2) Critical residues for antibody binding (outlined in dark grey) were residues whose mutations led to a binding of the test Abs of less than 20%. Additional secondary residues (outlined in light grey) were identified that led to a binding of the test Abs of between 20 and 40% as compared to the wild type CD33.

human CD33 C101A = human CD33 C101A (human, UniProt P20138 18-364); assay: flow cytometry on HEK293-T, alanine scan
Experimental: as §1, §2

human CD33 V106A = human CD33 V106A (human, UniProt P20138 18-364); assay: flow cytometry on HEK293-T, alanine scan
Experimental: as §1, §2

human CD33 A108S = human CD33 A108S (human, UniProt P20138 18-364); assay: flow cytometry on HEK293-T, alanine scan
Chain of human CD33 A108S (P20138 18-364 A108S limits assumed): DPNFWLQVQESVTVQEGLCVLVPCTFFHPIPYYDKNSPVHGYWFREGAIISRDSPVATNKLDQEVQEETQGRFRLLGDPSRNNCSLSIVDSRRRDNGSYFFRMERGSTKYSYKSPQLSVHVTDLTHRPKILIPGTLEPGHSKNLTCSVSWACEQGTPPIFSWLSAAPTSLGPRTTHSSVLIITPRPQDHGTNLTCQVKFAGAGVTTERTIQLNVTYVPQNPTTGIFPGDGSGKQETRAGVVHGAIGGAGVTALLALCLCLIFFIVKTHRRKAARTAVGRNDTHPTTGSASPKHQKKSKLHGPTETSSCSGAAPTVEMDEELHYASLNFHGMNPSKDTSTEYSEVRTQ
Experimental: as §1, §2

human CD33 R109A = human CD33 R109A (human, UniProt P20138 18-364); assay: flow cytometry on HEK293-T, alanine scan
Chain of human CD33 R109A (P20138 18-364 R109A limits assumed): as the sequence (P20138 18-364 A108S limits assumed) above, with S91A, R92A counted along it
Experimental: as §1, §2

human CD33 F118A = human CD33 F118A (human, UniProt P20138 18-364); assay: flow cytometry on HEK293-T, alanine scan
Chain of human CD33 F118A (P20138 18-364 F118A limits assumed): as the sequence (P20138 18-364 A108S limits assumed) above, with S91A, F101A counted along it
Experimental: as §1, §2

human CD33 Y127A = human CD33 Y127A (human, UniProt P20138 18-364); assay: flow cytometry on HEK293-T, alanine scan
Chain of human CD33 Y127A (P20138 18-364 Y127A limits assumed): as the sequence (P20138 18-364 A108S limits assumed) above, with S91A, Y110A counted along it
Experimental: as §1, §2

human CD33 L134A = human CD33 L134A (human, UniProt P20138 18-364); assay: flow cytometry on HEK293-T, alanine scan
Chain of human CD33 L134A (P20138 18-364 L134A limits assumed): as the sequence (P20138 18-364 A108S limits assumed) above, with S91A, L117A counted along it
Experimental: as §1, §2

human CD33 T152A = human CD33 T152A (human, UniProt P20138 18-364); assay: flow cytometry on HEK293-T, alanine scan
Chain of human CD33 T152A (P20138 18-364 T152A limits assumed): as the sequence (P20138 18-364 A108S limits assumed) above, with S91A, T135A counted along it
Experimental: as §1, §2

human CD33 S158A = human CD33 S158A (human, UniProt P20138 18-364); assay: flow cytometry on HEK293-T, alanine scan
Chain of human CD33 S158A (P20138 18-364 S158A limits assumed): as the sequence (P20138 18-364 A108S limits assumed) above, with S91A, S141A counted along it
Experimental: as §1, §2

human CD33 S97A = human CD33 S97A (human, UniProt P20138 18-364); assay: flow cytometry on HEK293-T, alanine scan
Chain of human CD33 S97A (P20138 18-364 S97A limits assumed): as the sequence (P20138 18-364 A108S limits assumed) above, with S80A, S91A counted along it
Experimental: as §1, §2

human CD33 variant P48T = human CD33 variant P48T (human, UniProt P20138 18-364); assay: flow cytometry, IgG on cells expressing the mutant
human CD33 variant P48V = human CD33 variant P48V (human, UniProt P20138 18-364); assay: flow cytometry, IgG on cells expressing the mutant
human CD33 variant P48L = human CD33 variant P48L (human, UniProt P20138 18-364); assay: flow cytometry, IgG on cells expressing the mutant
human CD33 variant P48Y = human CD33 variant P48Y (human, UniProt P20138 18-364); assay: flow cytometry, IgG on cells expressing the mutant
human CD33 variant P48Q = human CD33 variant P48Q (human, UniProt P20138 18-364); assay: flow cytometry, IgG on cells expressing the mutant
human CD33 variant P48D = human CD33 variant P48D (human, UniProt P20138 18-364); assay: flow cytometry, IgG on cells expressing the mutant
human CD33 variant P48S = human CD33 variant P48S (human, UniProt P20138 18-364); assay: flow cytometry, IgG on cells expressing the mutant
human CD33 variant Y49H = human CD33 variant Y49H (human, UniProt P20138 18-364); assay: flow cytometry, IgG on cells expressing the mutant
human CD33 variant Y49R = human CD33 variant Y49R (human, UniProt P20138 18-364); assay: flow cytometry, IgG on cells expressing the mutant
Chain of human CD33 variant Y49R (P20138 18-364 Y49R limits assumed): as the sequence (P20138 18-364 A108S limits assumed) above, with Y32R, S91A counted along it

human CD33 variant Y49V = human CD33 variant Y49V (human, UniProt P20138 18-364); assay: flow cytometry, IgG on cells expressing the mutant
human CD33 variant Y49C = human CD33 variant Y49C (human, UniProt P20138 18-364); assay: flow cytometry, IgG on cells expressing the mutant
Chain of human CD33 variant Y49C (P20138 18-364 Y49C limits assumed): as the sequence (P20138 18-364 A108S limits assumed) above, with Y32C, S91A counted along it

human CD33 variant Y49S = human CD33 variant Y49S (human, UniProt P20138 18-364); assay: flow cytometry, IgG on cells expressing the mutant
human CD33 variant Y49I = human CD33 variant Y49I (human, UniProt P20138 18-364); assay: flow cytometry, IgG on cells expressing the mutant
human CD33 variant Y49L = human CD33 variant Y49L (human, UniProt P20138 18-364); assay: flow cytometry, IgG on cells expressing the mutant
Chain of human CD33 variant Y49L (P20138 18-364 Y49L limits assumed): as the sequence (P20138 18-364 A108S limits assumed) above, with Y32L, S91A counted along it

human CD33 variant Y50S = human CD33 variant Y50S (human, UniProt P20138 18-364); assay: flow cytometry, IgG on cells expressing the mutant
human CD33 variant Y50N = human CD33 variant Y50N (human, UniProt P20138 18-364); assay: flow cytometry, IgG on cells expressing the mutant
human CD33 variant D51N = human CD33 variant D51N (human, UniProt P20138 18-364); assay: flow cytometry, IgG on cells expressing the mutant
Chain of human CD33 variant D51N (P20138 18-364 D51N limits assumed): as the sequence (P20138 18-364 A108S limits assumed) above, with D34N, S91A counted along it

human CD33 variant K52S = human CD33 variant K52S (human, UniProt P20138 18-364); assay: flow cytometry, IgG on cells expressing the mutant
human CD33 variant I47L = human CD33 variant I47L (human, UniProt P20138 18-364); assay: flow cytometry, IgG on cells expressing the mutant
human CD33 variant K52E = human CD33 variant K52E (human, UniProt P20138 18-364); assay: flow cytometry, IgG on cells expressing the mutant
human CD33 variant M120L = human CD33 variant M120L (human, UniProt P20138 18-364); assay: flow cytometry, IgG on cells expressing the mutant
human CD33 variant I47F = human CD33 variant I47F (human, UniProt P20138 18-364); assay: flow cytometry, IgG on cells expressing the mutant
human CD33 variant R122S = human CD33 variant R122S (human, UniProt P20138 18-364); assay: flow cytometry, IgG on cells expressing the mutant
human CD33 variant Y127H = human CD33 variant Y127H (human, UniProt P20138 18-364); assay: flow cytometry, IgG on cells expressing the mutant
human CD33 variant S131G = human CD33 variant S131G (human, UniProt P20138 18-364); assay: flow cytometry, IgG on cells expressing the mutant

Chain of human CD33 V106A (P20138 18-364 V106A limits assumed): as the sequence (P20138 18-364 A108S limits assumed) above, with V89A, S91A counted along it
Chain of human CD33 N99A (P20138 18-364 N99A limits assumed): as the sequence (P20138 18-364 A108S limits assumed) above, with N82A, S91A counted along it

B1: Refmab #1 (antibody, V domains shown)
VH: EVQLVQSGAEVKKPGSSVKVSCKASGYTITDSNIHWVRQAPGQSLEWIGYIYPYNGGTDYNQKFKNRATLTVDNPTNTAYMELSSLRSEDTAFYYCVNGNPWLAYWGQGTLVTVSS
VL: DIQLTQSPSTLSASVGDRVTITCRASESLDNYGIRFLTWFQQKPGKAPKLLMYAASNQGSGVPSRFSGSGSGTEFTLTISSLQPDDFATYYCQQTKEVPWSFGQGTKVEVK
notes: The alanine scan used IgG or Fab; also called hP67.6
Human CD33 N99A
  Mean % WT Binding: 80.2 % WT binding
Human CD33 C101A
  Mean % WT Binding: 1.1 % WT binding
Human CD33 V106A
  Mean % WT Binding: 88.5 % WT binding
Human CD33 A108S
  Mean % WT Binding: 85.3 % WT binding
Human CD33 R109A
  Mean % WT Binding: 101 % WT binding
Human CD33 F118A
  Mean % WT Binding: 0.1 % WT binding
Human CD33 Y127A
  Mean % WT Binding: 92.6 % WT binding
Human CD33 L134A
  Mean % WT Binding: 95.4 % WT binding
Human CD33 T152A
  Mean % WT Binding: 86.3 % WT binding
Human CD33 S158A
  Mean % WT Binding: 87.1 % WT binding
Human CD33 S97A
  Mean % WT Binding: 92.5 % WT binding

B2: Refmab #3 (antibody, V domains shown)
VH: QVQLVQSGAEVKKPGSSVKVSCKASGYTFTDYNMHWVRQAPGQGLEWIGYIYPYNGGTGYNQKFKSKATITADESTNTAYMELSSLRSEDTAVYYCARGRPAMDYWGQGTLVTVSS
VL: DIQMTQSPSSLSASVGDRVTITCRASESVDNYGISFMNWFQQKPGKAPKLLIYAASNQGSGVPSRFSGSGSGTDFTLTISSLQPDDFATYYCQQSKEVPWTFGQGTKVEIK
notes: The alanine scan used IgG or Fab
Human CD33 N99A
  Mean % WT Binding: 98.6 % WT binding
Human CD33 V106A
  Mean % WT Binding: 85.7 % WT binding
Human CD33 A108S
  Mean % WT Binding: 98 % WT binding
Human CD33 R109A
  Mean % WT Binding: 112 % WT binding
Human CD33 F118A
  Mean % WT Binding: 8.2 % WT binding
Human CD33 Y127A
  Mean % WT Binding: 31.9 % WT binding
Human CD33 L134A
  Mean % WT Binding: 81.4 % WT binding
Human CD33 T152A
  Mean % WT Binding: 155 % WT binding
Human CD33 S158A
  Mean % WT Binding: 111 % WT binding
Human CD33 S97A
  Mean % WT Binding: 90.4 % WT binding

B3: Refmab #1 (antibody, human IgG1, V domains shown)
VH: B1 VH
VL: B1 VL
notes: Tested in IgG format; human IgG1 (Absolute Antibody hP67.6, Cat. No. Ab00283-10.0); also called hP67.6
Human CD33 variant P48T
  Mean % WT Binding: 106 % of WT
Human CD33 variant P48V
  Mean % WT Binding: 121 % of WT
Human CD33 variant P48L
  Mean % WT Binding: 102 % of WT
Human CD33 variant P48Y
  Mean % WT Binding: 99.5 % of WT
Human CD33 variant P48Q
  Mean % WT Binding: 120 % of WT
Human CD33 variant P48D
  Mean % WT Binding: 109 % of WT
Human CD33 variant P48S
  Mean % WT Binding: 97.5 % of WT
Human CD33 variant Y49H
  Mean % WT Binding: 89.1 % of WT
Human CD33 variant Y49R
  Mean % WT Binding: 87.1 % of WT
Human CD33 variant Y49V
  Mean % WT Binding: 101 % of WT
Human CD33 variant Y49C
  Mean % WT Binding: 67.2 % of WT
Human CD33 variant Y49S
  Mean % WT Binding: 107 % of WT
Human CD33 variant Y49I
  Mean % WT Binding: 109 % of WT
Human CD33 variant Y49L
  Mean % WT Binding: 100 % of WT
Human CD33 variant Y50S
  Mean % WT Binding: 101 % of WT
Human CD33 variant Y50N
  Mean % WT Binding: 96.3 % of WT
Human CD33 variant D51N
  Mean % WT Binding: 99 % of WT
Human CD33 variant K52S
  Mean % WT Binding: 84.3 % of WT
Human CD33 variant I47L
  Mean % WT Binding: 112 % of WT
Human CD33 variant K52E
  Mean % WT Binding: 98.6 % of WT
Human CD33 variant M120L
  Mean % WT Binding: 98.4 % of WT
Human CD33 variant I47F
  Mean % WT Binding: 101 % of WT
Human CD33 variant R122S
  Mean % WT Binding: 111 % of WT
Human CD33 variant Y127H
  Mean % WT Binding: 97.1 % of WT
Human CD33 variant S131G
  Mean % WT Binding: 95.1 % of WT
